Assay results: patent US20120172293A1 (Takeda / Millennium, published 2012)
Non-standard residues stand in square brackets, D forms with d. *: point of attachment. X4 = ((1S)-1-Carboxy-3-methylbutyl)carbamoyl, CC(C)C[C@H](NC(=O)*)C(=O)O; X10 = Tetrahydro‑2H‑pyran‑4‑yl‑carbamoyl, O=C(NC1CCOCC1)*; 4‑guanidinomethylbenzoyl = N=C(N)NCc1ccc(C(=O)*)cc1; Arg(Me) = CNC(=N)NCCC[C@H](N)C(=O)O; hArg = N=C(N)NCCCC[C@H](N)C(=O)O; tBuAla = CC(C)(C)C[C@H](N)C(=O)O; 4Pal = N[C@@H](Cc1ccncc1)C(=O)O; Cha = N[C@@H](CC1CCCCC1)C(=O)O; Iva = CC[C@](C)(N)C(=O)O; Aib = CC(C)(N)C(=O)O

B1: Ac-[D-Pro24, Iva25,28, Pya(4)26, Cha27,36, Lys30, Aib31]-PYY(23-36) (peptide)
peptide: Ac-S[dP][Iva][4Pal][Cha][Iva]NK[Aib]TRQR[Cha]-NH2
SMILES: CC[C@](C)(NC(=O)[C@H](CC1CCCCC1)NC(=O)[C@H](Cc1ccncc1)NC(=O)[C@](C)(CC)NC(=O)[C@H]1CCCN1C(=O)[C@H](CO)NC(C)=O)C(=O)N[C@@H](CC(N)=O)C(=O)N[C@@H](CCCCN)C(=O)NC(C)(C)C(=O)N[C@H](C(=O)N[C@@H](CCCNC(=N)N)C(=O)N[C@@H](CCC(N)=O)C(=O)N[C@@H](CCCNC(=N)N)C(=O)N[C@@H](CC1CCCCC1)C(N)=O)[C@@H](C)O
B2: Ac-[Phe22, D-Pro24, Pya(4)26, Cha27,36, Aib28,31, Lys30]-PYY(22-36) (peptide)
peptide: Ac-FS[dP]R[4Pal][Cha][Aib]NK[Aib]TRQR[Cha]-NH2
SMILES: CC(=O)N[C@@H](Cc1ccccc1)C(=O)N[C@@H](CO)C(=O)N1CCC[C@@H]1C(=O)N[C@@H](CCCNC(=N)N)C(=O)N[C@@H](Cc1ccncc1)C(=O)N[C@@H](CC1CCCCC1)C(=O)NC(C)(C)C(=O)N[C@@H](CC(N)=O)C(=O)N[C@@H](CCCCN)C(=O)NC(C)(C)C(=O)N[C@H](C(=O)N[C@@H](CCCNC(=N)N)C(=O)N[C@@H](CCC(N)=O)C(=O)N[C@@H](CCCNC(=N)N)C(=O)N[C@@H](CC1CCCCC1)C(N)=O)[C@@H](C)O
B3: Ac-[Lys22,30, D-Pro24, Pya(4)26, Cha27,36, Aib28,31]-PYY(22-36) (peptide)
peptide: Ac-KS[dP]R[4Pal][Cha][Aib]NK[Aib]TRQR[Cha]-NH2
SMILES: CC(=O)N[C@@H](CCCCN)C(=O)N[C@@H](CO)C(=O)N1CCC[C@@H]1C(=O)N[C@@H](CCCNC(=N)N)C(=O)N[C@@H](Cc1ccncc1)C(=O)N[C@@H](CC1CCCCC1)C(=O)NC(C)(C)C(=O)N[C@@H](CC(N)=O)C(=O)N[C@@H](CCCCN)C(=O)NC(C)(C)C(=O)N[C@H](C(=O)N[C@@H](CCCNC(=N)N)C(=O)N[C@@H](CCC(N)=O)C(=O)N[C@@H](CCCNC(=N)N)C(=O)N[C@@H](CC1CCCCC1)C(N)=O)[C@@H](C)O
B4: Ac-[D-Pro24, Pya(4)26, Cha27,36, Aib28,31, Arg30]-PYY(23-36) (peptide)
peptide: Ac-S[dP]R[4Pal][Cha][Aib]NR[Aib]TRQR[Cha]-NH2
SMILES: CC(=O)N[C@@H](CO)C(=O)N1CCC[C@@H]1C(=O)N[C@@H](CCCNC(=N)N)C(=O)N[C@@H](Cc1ccncc1)C(=O)N[C@@H](CC1CCCCC1)C(=O)NC(C)(C)C(=O)N[C@@H](CC(N)=O)C(=O)N[C@@H](CCCNC(=N)N)C(=O)NC(C)(C)C(=O)N[C@H](C(=O)N[C@@H](CCCNC(=N)N)C(=O)N[C@@H](CCC(N)=O)C(=O)N[C@@H](CCCNC(=N)N)C(=O)N[C@@H](CC1CCCCC1)C(N)=O)[C@@H](C)O
B5: Ac-[D-Pro24, Har25, Cha27,36, Aib28,31, Lys30]-PYY(23-36) (peptide)
peptide: Ac-S[dP][hArg]H[Cha][Aib]NK[Aib]TRQR[Cha]-NH2
SMILES: CC(=O)N[C@@H](CO)C(=O)N1CCC[C@@H]1C(=O)N[C@@H](CCCCNC(=N)N)C(=O)N[C@@H](Cc1c[nH]cn1)C(=O)N[C@@H](CC1CCCCC1)C(=O)NC(C)(C)C(=O)N[C@@H](CC(N)=O)C(=O)N[C@@H](CCCCN)C(=O)NC(C)(C)C(=O)N[C@H](C(=O)N[C@@H](CCCNC(=N)N)C(=O)N[C@@H](CCC(N)=O)C(=O)N[C@@H](CCCNC(=N)N)C(=O)N[C@@H](CC1CCCCC1)C(N)=O)[C@@H](C)O
B6: Ac-[Leu22, D-Pro24, Pya(4)26, Cha27,36, Aib28,31, Lys30]-PYY(22-36) (peptide)
peptide: Ac-LS[dP]R[4Pal][Cha][Aib]NK[Aib]TRQR[Cha]-NH2
SMILES: CC(=O)N[C@@H](CC(C)C)C(=O)N[C@@H](CO)C(=O)N1CCC[C@@H]1C(=O)N[C@@H](CCCNC(=N)N)C(=O)N[C@@H](Cc1ccncc1)C(=O)N[C@@H](CC1CCCCC1)C(=O)NC(C)(C)C(=O)N[C@@H](CC(N)=O)C(=O)N[C@@H](CCCCN)C(=O)NC(C)(C)C(=O)N[C@H](C(=O)N[C@@H](CCCNC(=N)N)C(=O)N[C@@H](CCC(N)=O)C(=O)N[C@@H](CCCNC(=N)N)C(=O)N[C@@H](CC1CCCCC1)C(N)=O)[C@@H](C)O
B7: [(1S)-1-Carboxy-3-methylbutyl]carbamoyl-[Glu23, D-Pro24, Pya(4)26, Cha27,36, Aib28,31, Lys30]-PYY(23-36) (peptide)
peptide: X4-E[dP]R[4Pal][Cha][Aib]NK[Aib]TRQR[Cha]-NH2
SMILES: CC(C)C[C@H](NC(=O)N[C@@H](CCC(=O)O)C(=O)N1CCC[C@@H]1C(=O)N[C@@H](CCCNC(=N)N)C(=O)N[C@@H](Cc1ccncc1)C(=O)N[C@@H](CC1CCCCC1)C(=O)NC(C)(C)C(=O)N[C@@H](CC(N)=O)C(=O)N[C@@H](CCCCN)C(=O)NC(C)(C)C(=O)N[C@H](C(=O)N[C@@H](CCCNC(=N)N)C(=O)N[C@@H](CCC(N)=O)C(=O)N[C@@H](CCCNC(=N)N)C(=O)N[C@@H](CC1CCCCC1)C(N)=O)[C@@H](C)O)C(=O)O
B8: [(1S)-1-Carboxy-3-methylbutyl]carbamoyl-[Gln23, D-Pro24, Pya(4)26, Cha27,36, Aib28,31, Lys30]-PYY(23-36) (peptide)
peptide: X4-Q[dP]R[4Pal][Cha][Aib]NK[Aib]TRQR[Cha]-NH2
modifications: not fully specified; printed as [(1S)-1-Carboxy-3-methylbutyl]carbamoyl-[Gln23, D-Pro24, Pya(4)26, Cha27,36, Aib28,31, Lys30]-PYY(23-36)
B9: Ac-[D-Pro24, Lys(Ac)25, Pya(4)26, Cha27,36, Aib28,31, Lys30]-PYY(23-36) (peptide)
peptide: Ac-S[dP]K(Ac)[4Pal][Cha][Aib]NK[Aib]TRQR[Cha]-NH2
SMILES: CC(=O)NCCCC[C@H](NC(=O)[C@H]1CCCN1C(=O)[C@H](CO)NC(C)=O)C(=O)N[C@@H](Cc1ccncc1)C(=O)N[C@@H](CC1CCCCC1)C(=O)NC(C)(C)C(=O)N[C@@H](CC(N)=O)C(=O)N[C@@H](CCCCN)C(=O)NC(C)(C)C(=O)N[C@H](C(=O)N[C@@H](CCCNC(=N)N)C(=O)N[C@@H](CCC(N)=O)C(=O)N[C@@H](CCCNC(=N)N)C(=O)N[C@@H](CC1CCCCC1)C(N)=O)[C@@H](C)O
B10: Tetrahydro-2H-pyran-4-yl-carbamoyl-[Glu23, D-Pro24, Pya(4)26, Cha27,36, Aib28,31, Lys30]-PYY(23-36) (peptide)
peptide: X10-E[dP]R[4Pal][Cha][Aib]NK[Aib]TRQR[Cha]-NH2
SMILES: C[C@@H](O)[C@H](NC(=O)C(C)(C)NC(=O)[C@H](CCCCN)NC(=O)[C@H](CC(N)=O)NC(=O)C(C)(C)NC(=O)[C@H](CC1CCCCC1)NC(=O)[C@H](Cc1ccncc1)NC(=O)[C@H](CCCNC(=N)N)NC(=O)[C@H]1CCCN1C(=O)[C@H](CCC(=O)O)NC(=O)NC1CCOCC1)C(=O)N[C@@H](CCCNC(=N)N)C(=O)N[C@@H](CCC(N)=O)C(=O)N[C@@H](CCCNC(=N)N)C(=O)N[C@@H](CC1CCCCC1)C(N)=O
B11: Ac-[D-Pro24, Iva25, Pya(4)26, Cha27,36, Leu(Me)28, Lys30, Aib31]-PYY(23-36) (peptide)
peptide: Ac-S[dP][Iva][4Pal][Cha][tBuAla]NK[Aib]TRQR[Cha]-NH2
SMILES: CC[C@](C)(NC(=O)[C@H]1CCCN1C(=O)[C@H](CO)NC(C)=O)C(=O)N[C@@H](Cc1ccncc1)C(=O)N[C@@H](CC1CCCCC1)C(=O)N[C@@H](CC(C)(C)C)C(=O)N[C@@H](CC(N)=O)C(=O)N[C@@H](CCCCN)C(=O)NC(C)(C)C(=O)N[C@H](C(=O)N[C@@H](CCCNC(=N)N)C(=O)N[C@@H](CCC(N)=O)C(=O)N[C@@H](CCCNC(=N)N)C(=O)N[C@@H](CC1CCCCC1)C(N)=O)[C@@H](C)O
B12: 4-Guanidinomethylbenzoyl-[Iva25, Cha27,36, Aib28,31, Lys30]-PYY(25-36) (peptide)
peptide: {4‑guanidinomethylbenzoyl}-[Iva]H[Cha][Aib]NK[Aib]TRQR[Cha]-NH2
SMILES: CC[C@](C)(NC(=O)c1ccc(CNC(=N)N)cc1)C(=O)N[C@@H](Cc1c[nH]cn1)C(=O)N[C@@H](CC1CCCCC1)C(=O)NC(C)(C)C(=O)N[C@@H](CC(N)=O)C(=O)N[C@@H](CCCCN)C(=O)NC(C)(C)C(=O)N[C@H](C(=O)N[C@@H](CCCNC(=N)N)C(=O)N[C@@H](CCC(N)=O)C(=O)N[C@@H](CCCNC(=N)N)C(=O)N[C@@H](CC1CCCCC1)C(N)=O)[C@@H](C)O
B13: Ac-[D-Pro24, Arg(Me)25, Cha27,36, Aib28,31, Lys30]-PYY(23-36) (peptide)
peptide: Ac-S[dP][Arg(Me)]H[Cha][Aib]NK[Aib]TRQR[Cha]-NH2
SMILES: CNC(=N)NCCC[C@H](NC(=O)[C@H]1CCCN1C(=O)[C@H](CO)NC(C)=O)C(=O)N[C@@H](Cc1c[nH]cn1)C(=O)N[C@@H](CC1CCCCC1)C(=O)NC(C)(C)C(=O)N[C@@H](CC(N)=O)C(=O)N[C@@H](CCCCN)C(=O)NC(C)(C)C(=O)N[C@H](C(=O)N[C@@H](CCCNC(=N)N)C(=O)N[C@@H](CCC(N)=O)C(=O)N[C@@H](CCCNC(=N)N)C(=O)N[C@@H](CC1CCCCC1)C(N)=O)[C@@H](C)O
B14: Ac-[D-Pro24, Pya(4)26, Cha27,36, Aib28,31, Lys30]-PYY(24-36) (peptide)
peptide: Ac-[dP]R[4Pal][Cha][Aib]NK[Aib]TRQR[Cha]-NH2
SMILES: CC(=O)N1CCC[C@@H]1C(=O)N[C@@H](CCCNC(=N)N)C(=O)N[C@@H](Cc1ccncc1)C(=O)N[C@@H](CC1CCCCC1)C(=O)NC(C)(C)C(=O)N[C@@H](CC(N)=O)C(=O)N[C@@H](CCCCN)C(=O)NC(C)(C)C(=O)N[C@H](C(=O)N[C@@H](CCCNC(=N)N)C(=O)N[C@@H](CCC(N)=O)C(=O)N[C@@H](CCCNC(=N)N)C(=O)N[C@@H](CC1CCCCC1)C(N)=O)[C@@H](C)O

Target: human Y2 receptor (human) (UniProt P49146)
Sequence (P49146 whole entry): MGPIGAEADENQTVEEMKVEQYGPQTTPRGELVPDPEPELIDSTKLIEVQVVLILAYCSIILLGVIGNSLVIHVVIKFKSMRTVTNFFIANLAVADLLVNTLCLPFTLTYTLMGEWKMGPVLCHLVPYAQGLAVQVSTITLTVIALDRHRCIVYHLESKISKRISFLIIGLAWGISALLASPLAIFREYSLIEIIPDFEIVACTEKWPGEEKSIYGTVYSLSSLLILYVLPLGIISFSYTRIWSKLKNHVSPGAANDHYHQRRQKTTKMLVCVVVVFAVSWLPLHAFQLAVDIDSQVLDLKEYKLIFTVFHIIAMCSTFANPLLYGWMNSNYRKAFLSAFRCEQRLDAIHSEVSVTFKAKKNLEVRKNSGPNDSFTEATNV
Test: cell-based or functional assay

GBA EC50 Ratio ([35S]GTPγS binding) (EC50 compound/EC50 PYY(3-36)) | Binder
1 | B1
0.89 | B2
1 | B3
1.8 | B4
2.7 | B5
1 | B6
2.5 | B7
1.3 | B8
4.2 | B9
1.6 | B10
1.2 | B11
2.8 | B12
1.8 | B13
0.56 | B14

Target: human Y2 receptor (human) (UniProt P49146)
Test: RBA: displacement of [125I]-PYY from hY2R/CHO membranes

IC50 Ratio (IC50 compound/IC50 PYY(3-36)) | Binder
1.1 | B1
1.2 | B2
1.1 | B3
1.1 | B4
1.2 | B5
1.2 | B6
2.2 | B7
0.93 | B8
6.6 | B9
1.1 | B10
0.76 | B11
6.3 | B12
1.8 | B13
0.68 | B14
